Reference: patent publication US7399466B2, “Method and compositions for promoting osteogenesis” (Enobia Pharma Inc., priority 2000, dated 2008)
Where “and” joins values, the source holds several entries; their conditions need not be identical. Equal entries are not always repeated. Where two headings read alike, the source gives them in different places. Blank lines part the entries; values can stand above or below the molecule they belong to. Bridges are numbered along the chain shown (N, C = ends). Where no end group is shown, it is not given here. [ ]: non-standard residue; d: D form. Gla = N[C@@H](CC(C(=O)O)C(=O)O)C(=O)O

What was measured:
secPHEX = molecular target: T1, secPHEX (Homo sapiens, UniProt P78562); assay: secPHEX enzymatic assay: inhibition of PTHrP107-139 hydrolysis (RP-HPLC); type: biochemical
T1 construct: made in house; host or cells: LLC-PK1 cells (porcine kidney; ATCC No. CRL-1392), stably transfected; purified from culture medium
T1 sequence (P78562 46-749): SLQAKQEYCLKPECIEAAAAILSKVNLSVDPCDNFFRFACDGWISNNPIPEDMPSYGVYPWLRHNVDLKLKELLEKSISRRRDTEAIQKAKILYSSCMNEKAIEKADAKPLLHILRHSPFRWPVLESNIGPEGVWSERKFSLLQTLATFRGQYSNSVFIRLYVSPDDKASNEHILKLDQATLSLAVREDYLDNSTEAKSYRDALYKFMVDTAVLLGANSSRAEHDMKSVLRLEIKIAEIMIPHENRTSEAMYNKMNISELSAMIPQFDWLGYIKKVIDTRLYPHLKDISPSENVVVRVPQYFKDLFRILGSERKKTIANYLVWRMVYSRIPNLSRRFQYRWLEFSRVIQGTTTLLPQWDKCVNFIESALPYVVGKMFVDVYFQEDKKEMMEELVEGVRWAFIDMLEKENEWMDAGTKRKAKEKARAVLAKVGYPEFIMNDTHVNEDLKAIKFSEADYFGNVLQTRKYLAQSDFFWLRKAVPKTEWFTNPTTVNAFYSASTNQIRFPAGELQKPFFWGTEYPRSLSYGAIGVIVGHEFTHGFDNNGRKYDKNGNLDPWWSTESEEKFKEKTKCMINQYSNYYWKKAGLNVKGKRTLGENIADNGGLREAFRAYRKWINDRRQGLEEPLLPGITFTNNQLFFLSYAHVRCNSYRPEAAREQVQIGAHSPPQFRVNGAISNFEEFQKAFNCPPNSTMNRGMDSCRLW
Description: (§1) One μg of purified secPHEX or secPHEXE581V was incubated with 5 μg of peptide substrate for 30 min at 37° C. in a volume of 200 μl of 50 mM MES (2-(N-morpholino) ethanesulfonic acid) pH6.5, 150 mM NaCl. Peptide PTHrP107-139 (human origin and obtained from Bachem, Philadelphia, Pa., U.S.A. or Peninsula Laboratories, Belmont, Calif., U.S.A.), used as a substrate, was prepared as 1 μg/μl solutions also containing 1 μg/μl of the tripeptide Tyr-Gly-Gly. This latter peptide, which is not a PHEX substrate, was used as an internal standard. Peptide substrate AWLDSGV (Dr Gilles Lajoie, Waterloo Peptide Synthesis C2-360 University of Waterloo, Waterloo, ON Canada) (SEQ ID NO: 1) was digested with secPHEX in the same manner as described above for PTHrP107-139. To determine osteocalcin inhibitory potency on secPHEX activity, osteocalcin (Peptide Research Institute, Japan or E. coli-produced) was added to the reaction mixture to final concentrations varying from 10^−8 to 5×10^−4 M. To determine the effect of agents on the inhibitory activity of osteocalcin, the agents were added to a reaction mixture containing secPHEX, peptide substrate and 5×10^−6 M osteocalcin. […] Following the incubation period, hydrolysis was stopped by the addition of EDTA to a final concentration of 5 mM. The potentiating agent was identified when the intact substrate was determined to be present in a […] concentration than in the absence of the potentiating agent (see FIG. 6). Results were quantified by comparing, after normalization for the amounts of peptide Tyr-Gly-Gly present in the samples, the areas under the peaks of the substrate.
Identification and quantification of the enzymatic activity of secPHEX on the PTHrP107-139 peptide was performed by reverse phase high performance liquid chromatography (RP-HPLC) on a C18 μBondapak analytical column (Waters, Mississauga, ON, Canada) with a UV detector set at 214 nm. Peptides were resolved with a linear gradient of 5% B to 85% B in 45 min at the flow rate of 0.4 ml/min [mobile phase A=0.1% trifluoroacetic acid; mobile phase B=80% acetonitrile (CH3CN), 0.1% trifluoroacetic acid].

osteocalcin = molecular target: T2, osteocalcin (Homo sapiens, UniProt P02818); assay: Effect of Ca2+ on the inhibitory action of osteocalcin on secPHEX; type: biochemical
T2 construct: The mature peptide is 49 amino acids long with 3 Gla residues and one difulfide bond; purchased Peptide Research Institute, Japan
T2 sequence (P02818 52-100): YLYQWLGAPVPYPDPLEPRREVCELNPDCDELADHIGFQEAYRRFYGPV
Description: One μg of purified secPHEX or secPHEXE581V was incubated with 5 μg of peptide substrate for 30 min at 37° C. in a volume of 200 μl of 50 mM MES (2-(N-morpholino) ethanesulfonic acid) pH6.5, 150 mM NaCl. Peptide PTHrP107-139 (human origin and obtained from Bachem, Philadelphia, Pa., U.S.A. or Peninsula Laboratories, Belmont, Calif., U.S.A.), used as a substrate, was prepared as 1 μg/μl solutions also containing 1 μg/μl of the tripeptide Tyr-Gly-Gly. This latter peptide, which is not a PHEX substrate, was used as an internal standard. Peptide substrate AWLDSGV (Dr Gilles Lajoie, Waterloo Peptide Synthesis C2-360 University of Waterloo, Waterloo, ON Canada) (SEQ ID NO: 1) was digested with secPHEX in the same manner as described above for PTHrP107-139. […] The potentiating agent was identified when the intact substrate was determined to be present in a […] concentration than in the absence of the potentiating agent (see FIG. 6). Results were quantified by comparing, after normalization for the amounts of peptide Tyr-Gly-Gly present in the samples, the areas under the peaks of the substrate.
(§2) Identification and quantification of the enzymatic activity of secPHEX on the PTHrP107-139 peptide was performed by reverse phase high performance liquid chromatography (RP-HPLC) on a C18 μBondapak analytical column (Waters, Mississauga, ON, Canada) with a UV detector set at 214 nm. […]

Hyp male mice [1] = assay: secPHEX injection to Hyp mice, daily for 4 days: serum phosphate; type: in vivo, mouse; set-up: serum phosphate, Day 0 / serum phosphate, Day 4: unit not given here; details: for serum phosphate, Day 0 / serum phosphate, Day 4: individual Hyp mice; for serum phosphate, Day 0: baseline before treatment
Description: Purified secPHEX solubilized in 1 mM phosphate pH 7.4, 150 mM NaCl, was administered intravenously daily for 4 or 14 consecutive days through the subclavian vein Hyp males (12 weeks of age). The same number of aged-matched Hyp male mice were treated with vehicle only as controls. […]

PTHrP107-139 = assay: secPHEX activity: digestion of PTHrP107-139 (RP-HPLC, MALDI-Tof); type: biochemical, human
Description: as §1, §2
The pH optimum for the reaction was determined by progressively increasing the pH of the MES buffer from 5.0 to 7.0 or of a Tris buffer (50 mM Tris.HCl, 150 mM NaCl) from 7.0 to 9.0.

[2] = Precipitation of secPHEX in low-salt solutions; type: physicochemical; details: NaCl added to reaction mixture
Description: SecPHEX activity was assayed in 50 mM MES pH 6.5 containing 150 mM NaCl (26). Sodium chloride was added to the reaction mixture because we observed that secPHEX precipitated out in solutions containing less than 50 mM salt.

Hyp male mice [3] = assay: secPHEX injection to Hyp mice, daily for 14 days: serum alkaline phosphatase and phosphate; type: in vivo, mouse
Description: Purified secPHEX solubilized in 1 mM phosphate pH 7.4, 150 mM NaCl, was administered intravenously daily for 4 or 14 consecutive days through the subclavian vein Hyp males (12 weeks of age). The same number of aged-matched Hyp male mice were treated with vehicle only as controls.
In a similar experiment, Hyp male mice where injected with daily doses of 1 mg/kg secPHEX for 14 days.

[4] = PTHrP107-139 substrate, inhibitor varied from 0.1 to 50 mM, read-out: concentration giving 50% inhibition of secPHEX activity
[5] = 1 mM added to the reaction mixture
[6] = 1 mg/kg daily, individual Hyp mice

IC50 (secPHEX; [4]): 3500 µM
Molecule: O=P(O)(O)O [Pi]

Molecule: O=C(O)CN(CCN(CC(=O)O)CC(=O)O)CC(=O)O [EDTA]
inhibition of secPHEX activity (secPHEX; [5]): fully inhibited

Molecule: E. coli-produced osteocalcin: human osteocalcin without Gla residues made in E. coli (pGEX-OST vector) (YLYQWLGAPVPYPDPLEPRREVCELNPDCDELADHIGFQEAYRRFYGPV)
inhibitory potency on secPHEX compared to osteocalcin extracted from bones (secPHEX; FIG. 7A): similar | modulation of inhibitory activity on secPHEX by Ca2+ (osteocalcin; FIG. 7B): not modulated

inhibition of secPHEX activity (secPHEX; [5]): fully inhibited
Molecule: c1cnc2c(c1)ccc1cccnc12 [1,10-phenanthroline]

Molecule: O=P(O)(O)OP(=O)(O)O [pyrophosphate]
IC50 (secPHEX; [4]): 2500 µM

Molecule: [Ca+2] [Ca^2+, CaCl2, reference compound]
effect on secPHEX activity in the absence of osteocalcin (secPHEX; data not shown): no effect | EC50 (osteocalcin; CaCl2 varied from 10^−6 to 10^−2 M, constant osteocalcin 2×10^−6M (FIG. 6B), read-out: Ca2+ concentration necessary to reduce the inhibitory potency of osteocalcin by 50%): 5000 µM

inhibition of secPHEX activity (secPHEX; 5×10^−6 M osteocalcin): approximately 75% | degradation by secPHEX (secPHEX; data not shown): not degraded | IC50 (secPHEX; secPHEX-mediated PTHrP107-139 hydrolysis, FIG. 6A, read-out: concentration giving fifty percent inhibition of secPHEX activity): 3.6 µM
Molecule: osteocalcin: non-collagenous bone protein, mature peptide 49 amino acids with 3 Gla residues; extracted from human bones (YLYQWLGAPVPYPDPL[Gla]PRR[Gla]VC[Gla]LNPDCDELADHIGFQEAYRRFYGPV; disulfide 23-29 (inferred))

B1: secPHEX: soluble, secreted form of recombinant human PHEX zinc metallopeptidase produced in LLC-PK1 cells (protein, UniProt P78562 42-641, looked up)
extracellular domain: QGLLSLQAKQEYCLKPECIEAAAAILSKVNLSVDPCDNFFRFACDGWISNNPIPEDMPSYGVYPWLRHNVDLKLKELLEKSISRRRDTEAIQKAKILYSSCMNEKAIEKADAKPLLHILRHSPFRWPVLESNIGPEGVWSERKFSLLQTLATFRGQYSNSVFIRLYVSPDDKASNEHILKLDQATLSLAVREDYLDNSTEAKSYRDALYKFMVDTAVLLGANSSRAEHDMKSVLRLEIKIAEIMIPHENRTSEAMYNKMNISELSAMIPQFDWLGYIKKVIDTRLYPHLKDISPSENVVVRVPQYFKDLFRILGSERKKTIANYLVWRMVYSRIPNLSRRFQYRWLEFSRVIQGTTTLLPQWDKCVNFIESALPYVVGKMFVDVYFQEDKKEMMEELVEGVRWAFIDMLEKENEWMDAGTKRKAKEKARAVLAKVGYPEFIMNDTHVNEDLKAIKFSEADYFGNVLQTRKYLAQSDFFWLRKAVPKTEWFTNPTTVNAFYSASTNQIRFPAGELQKPFFWGTEYPRSLSYGAIGVIVGHEFTHGFDNNGRKYDKNGNLDPWWSTESEEKFKEKTKCMINQYSNYYWKKAGLNVKGKRTLG
modifications: extracellular domain
notes: soluble, secreted form of recombinant human PHEX zinc metallopeptidase produced in LLC-PK1 cells
effect on serum phosphate (Hyp male mice [1]; daily injection over 4 days, as a function of dose, Student t test p<0.05): decreased | serum phosphate, Day 0 (Hyp male mice [1]; dose 1 mg/kg group, 1 mg/kg): 1.68 and 1.25 and 1.36 and 1.37 | serum phosphate, Day 4 (Hyp male mice [1]; dose 1 mg/kg i.v. daily for 4 days, 1 mg/kg): 1.23 and 1.06 and 1.18 and 1.31 | serum phosphate, Day 0 (Hyp male mice [1]; dose 10 mg/kg group, 10 mg/kg): 1.16 and 1.12 and 1.39 and 1.14 | serum phosphate, Day 4 (Hyp male mice [1]; dose 10 mg/kg i.v. daily for 4 days, 10 mg/kg): 0.92 and 0.82 and 0.89 and 0.87 | pH of maximum activity (PTHrP107-139; MES buffer pH 5.0 to 7.0, Tris buffer pH 7.0 to 9.0): 6.5 | cleavage site specificity in PTHrP107-139 (PTHrP107-139; fragments identified by MALDI-Tof): amino-terminus of aspartate residues | salt concentration below which secPHEX precipitated out [2]: less than 50 mM | serum phosphate levels at the 7th and 14th day (Hyp male mice [3]; 1 mg/kg daily for 14 days): same level as pretreatment | effect on serum alkaline phosphatase levels (Hyp male mice [3]; 1 mg/kg daily for 14 days, normal levels 71+/−11 units, Student t test p<0.05): significantly reduced toward normal levels | alkaline phosphatase level, 7th day of treatment (Hyp male mice [3]; [6]): 183 units and 235 units and 233 units and 199 units and 246 units | alkaline phosphatase level, 14th day of treatment (Hyp male mice [3]; [6]): 196 units (2×) and 208 units and 193 units and 218 units | alkaline phosphatase level, pre-treatment (Hyp male mice [3]; 1 mg/kg group, individual Hyp mice, 7 day pre-treatment): 292 units and 357 units and 377 units and 348 units and 323 units

B2: secPHEXE581V: inactive secPHEX protein bearing the mutation Glu 581 to Val (protein)
chain: QGLLSLQAKQEYCLKPECIEAAAAILSKVNLSVDPCDNFFRFACDGWISNNPIPEDMPSYGVYPWLRHNVDLKLKELLEKSISRRRDTEAIQKAKILYSSCMNEKAIEKADAKPLLHILRHSPFRWPVLESNIGPEGVWSERKFSLLQTLATFRGQYSNSVFIRLYVSPDDKASNEHILKLDQATLSLAVREDYLDNSTEAKSYRDALYKFMVDTAVLLGANSSRAEHDMKSVLRLEIKIAEIMIPHENRTSEAMYNKMNISELSAMIPQFDWLGYIKKVIDTRLYPHLKDISPSENVVVRVPQYFKDLFRILGSERKKTIANYLVWRMVYSRIPNLSRRFQYRWLEFSRVIQGTTTLLPQWDKCVNFIESALPYVVGKMFVDVYFQEDKKEMMEELVEGVRWAFIDMLEKENEWMDAGTKRKAKEKARAVLAKVGYPEFIMNDTHVNEDLKAIKFSEADYFGNVLQTRKYLAQSDFFWLRKAVPKTEWFTNPTTVNAFYSASTNQIRFPAGELQKPFFWGTEYPRSLSYGAIGVIVGHVFTHGFDNNGRKYDKNGNLDPWWSTESEEKFKEKTKCMINQYSNYYWKKAGLNVKGKRTLG
degradation of PTHrP107-139 (in words) (PTHrP107-139; similar conditions as secPHEX, FIG. 3D): failed to degrade
